Assay: soluble on expression in E. coli; label from the status in PepcDB or PDB records

**Q.** With “MKTIAIRDVTGIMEPLPGFSVVRTDGSDGQRSIKLNGYKTTNNQYGYQFVKNENTVVYDDEEYIIKTHRERTYRKGVGVEATAIHRIFDDLRNNYIYDEKTGTLRLDAMLSFALEGSGYTFEIDTTDLPASVRVENFGWNNSLALFRDILEKFGAEFDYKGKKIYVAKKFGIQRDEPFLRYRFNVKDPEKEIDTSSFATYIRGYGKKDDKGNYLFAEYTSPLAKIYGIKHADPVKDERYTDKDSLLAAMKKQLNDNIDISLTFTAIELESMGLRDIKKGDYVWCVIEPFDLNVQLRAVSREDYSDETKSPTFTFGTITKKASDIIASFNTTKKAVDKVIDTSTGKIKDSAIDTTGLTTKSEFQSHVDNKIVHITAEERAAWNAASNSIGDLTFITWSTPTLKNGWIQYTANTESYPIQYGKDAIGTVNIRGAVSSGVVGSSTPVFTLPAGFRPPFPHLFIGVSSVATDGTPQYFRGIIKTNGDVCIENISNKDTPNQFIGIYTQFKAI” as the sequence, how does the “soluble on expression in E. coli” value read?
**A.** soluble

**Q.** With “MGAGPSDHRAITLEGTTVMVPVYNSTAQQSPYQLTTTADGGVALHHQGELTTTLETPPEPHFYNLQTAESIPYKAIALLHGKDVLATTLQQTCIRFRDRSESCQFCAIEQSLTSGQTIVRKTPEQVAEVVAAAVRLDGVRQLVMTTGTPNSRDRGARLMAETAAAVKAVVDIPIQAQCEPPDDPVWFSRMKAAGVNSLGMHLEVVEPEVRRRILPGKSELTLEHYYRAFEQAVAVFGRGEVSTYLLAGLGDSADSLIDCSRRLIAIGVYPFIVPFVPIAGTPLERHPAPTTAFMLQIYEAVGALLHDSDLRSAAMSAGLEHHHHHH” as the sequence, how does the “soluble on expression in E. coli” value read?
**A.** not soluble

**Q.** Which “soluble on expression in E. coli” value does the source give for “MSLIVTAYTQEGIVIGADSCITTNFTQEGKELYKHSHCGNKLFLLNKKIGISTCGDAIINGILLSSLIDQYIWSKKEENITLLQVEIDLKNIVNNQAKGKEYYVIFHICGYENGKRYVSKFDNNDKESHIKDVSERDGCIYDGQVDIVDLFSQDVAYRGTDGLYYDINIERCRYNELSLQETIEYVYFLISTTIQHMRFTYKKDNVGFPIDILVIMPNESLWLQKKELHIPGNY” here?
**A.** not soluble

**Q.** For “GSEDFTFDGTKRLSVNYVKGILQPTDTCDIWDKIWNFQAKPDDLLISTYPKAGTTWTQEIVELIQNEGDVEKSKRAPTHQRFPFLEMKIPSLGSGLEQAHAMPSPRILKTHLPFHLLPPSLLEKNCKIIYVARNPKDNMVSYYHFQRMNKALPAPGTWEEYFETFLAGKVCWGSWHEHVKGWWEAKDKHRILYLFYEDMKKNPKHEIQKLAEFIGKKLDDKVLDKIVHYTSFDVMKQNPMANYSSIPAEIMDHSISPFMRKGAVGDWKKHFTVAQNERFDEDYKKKMTDTRLTFHFQF”, which “soluble on expression in E. coli” value is on record?
**A.** soluble

**Q.** For “MAFFRLAALLWLGMLMSPVQAQSLSLQVLDAVVKDAVLADAEVQLGQASGRTDAQGRVTLEAADSPGSELLIRKLGYADLRAKCPCQGLSYAMSPVLKDPQSLRVVLSWSAPGEDLDAHLSYPHRLLYYATGTGPGARMNVDSTDSRGPETLTIEQPVPGDAYVYAVHDFTNGNNPESLRLGRSQAQVFVYKGPTLMRSYRVPQNRQGNLWVVFRLTANGQLQDIDRVLQGNEEVESRMSDLDPLLLANGKPIDEVLARDEGPVDAKSLNQKGEASYRKGDVGSAGIYYREAIELDPGFAQAYSNLALSNRKNSRPDEAVAADRQAIALASGPSAPTIRASAYYDMGRIYEDAGQLVTALEHYRKAREQKANPVYDKAIERLQNRLEHHHHHH”, which “soluble on expression in E. coli” value is on record?
**A.** not soluble

**Q.** Which “soluble on expression in E. coli” value does the source give for “MKRAPFLCKQSPDRTLEVVILAGSLAWETSRVWRKDPDREDDVPPMVLGPNELADLSNLTIIRPDTLYVRVLRTGDISEEDLLKIAVKLAHAGVQMARLMSPDGELLENWTGQLERLRQERPSDILPDHFRLDEEALWFDKLTERRDGESDVQPQRICSPLRVTAITCDSHDGSYGRLLEWHTTTGQLRRWAMPMAMLSGNGEELRRILLENGLTNISTRPALRSLLCEYISRSLPGRRVTCVEKTGWHNGVYVLPDEVIGPDGDNVILQGSHYLTGGFAQAGTLAEWQEQVAALCAGNSRLVFAVCCALAAPLLRLTGTGGGGFHLRGESTDGKTTVMKVAASVCGGTDYWHSWRATGNALEGIASRHNDALLPLDELREVDPREAGMIAYMLANGQGKGRARTDGEVRNRRHWTLLLFSTGELSLAEHTERAGERIYAGMDVRMVQIPSDTGQHGAFEQLHGFASGQQFADTLCDRVARFHGTAFRAWLAFLTHDQDASTTLARELLRRYQNALMPDNAGNQVQRIVARFALLAAAGEIATLHGITGWQKGTAYEAVQICLHAWLNERGHIANQEDEGVLAQIKRFITAHQYSRFASWDGPDRPLNMAGFRRVEKDPLTGEEHTLFFILPEGWREICRGFSPARAARLCQEAECLQPGSDGKYQSQVRLPEIGKTRVYRLTSRILSILEHHHHHH” here?
**A.** soluble

**Q.** With “MNKDTVLNVTVMGREFRIHCPGEEREELLLAVSCLNRKMQEIKSAGKIAGTEQIAIAAAISMTHELLSIRSQRGFDMNEFKRRIELLECRVSDALTDQGIYKNS” as the sequence, how does the “soluble on expression in E. coli” value read?
**A.** not soluble

**Q.** Which “soluble on expression in E. coli” value does the source give for “ENSHNKARTSPYPGSKVERSQVPNEKVGWLVEWQDYKPVEYTAVSVLAGPRWADPQISESNFSPKFNEKDGHVERKSKNGLYEIENGRPRNPAGRTGLVGRGLLGRWGPNHAADPIITRWKRDSSGNKIMHPVSGKHILQFVAIKRKDCGEWAIPGGMVDPGEKISATLKREFGEEALNSLQKTSAEKREIEEKLHKLFSQDHLVIYKGYVDDPRNTDNAWMETEAVNYHDETGEIMDNLMLEAGDDAGKVKWVDINDKLKLYASHSQFIKLVAEKRDAHWSEDSEADCHAL” here?
**A.** soluble

**Q.** Which “soluble on expression in E. coli” value does the source give for “GPGSMRGKTKKRKIYKRFSSLPKTETSTLPTVHSHTTCIRVQHVSHHLHAYICTLVSGMSHHRMWPSPITPSRTDATTTTTKTTTKNDTYSPHKKNTNTPHAKGRSYIVNLCHSFYSPTGDETVIWVTNVVRSCAAKYNYIPHILHSHETLVKRRCNENAANEKCLIRC” here?
**A.** not soluble

**Q.** With “SNAKIIGYARVSFNAQKDDLERQIQLIKSYAEENGWDIQILKDIGSGLNEKRKNYKKLLKMVMNRKVEKVIIAYPDRLTRFGFETLKEFFKSYGTEIVIINKKHKTPQEELVEDLITIVSHFAGKLYGMHSHKYKKLTKTVKEIVREEDAKEKE” as the sequence, how does the “soluble on expression in E. coli” value read?
**A.** soluble

**Q.** With “GPGSMIRTTAAAARLPQSTQGWVPLMRRALEFPIDSVTFPSHFYLHTVTNGTASTVGFSPQKEPVGLTALRQCAVLVLLSPAATGNGFQDMCITLTKRTATMGSHKSEMSFPGGHVDDDETLRNAAQRETLEEVGLPPSEYEIIGSLTPITTNALSARVTPFVAVATSPAQPYRASPVEVDSIHYLHMSMLLLSASTGHARVIKYRSFTSDRPCFFPCFFASPAQTVVSSAVCRSPKATGVADDCGFDPMLPEDF” as the sequence, how does the “soluble on expression in E. coli” value read?
**A.** not soluble

**Q.** For “MFQVKVRGCMTVYPKVQCISYKIDVDKPTVCELTLCLAPNSDVPADRFSNDLFLVVYNNEQKLVGLTRHVLEERKYSTGMMTVNEGDEVMIVGMGTTTNRKRSTTERVPLIEETNKLSKRFK”, which “soluble on expression in E. coli” value is on record?
**A.** not soluble

**Q.** For “MKRVFVFQDFKSQKFWSIDVRGTDVIVNYGKLGTDGQTQVKNFSSAGEAEKAAGKLIAEKTKKGYVETLEEVAKEMKVEAKKYALSYDEAEEGVNLMDKILKDKKLPSLKQITIGCWGYEGEDCSDIADGIVENKEKFAHFEGLFWGDIDFEEQEISWIEQVDLSPVLDAMPLLNNLKIKGTNNLSIGKKPRPNLKSLEIISGGLPDSVVEDILGSDLPNLEKLVLYVGVEDYGFDGDMNVFRPLFSKDRFPNLKWLGIVDAEEQNVVVEMFLESDILPQLETMDISAGVLTDEGARLLLDHVDKIKHLKFINMKYNYLSDEMKKELQKSLPMKIDVSDSQEYDDDYSYPMITELEHHHHHH”, which “soluble on expression in E. coli” value is on record?
**A.** soluble

**Q.** For “MGSDKIHHHHHHMNSNQLAFTIPISREMINIANKLSQQQRNEQKTREVYLNTLALLAVEFFCQCMEIETEFSKSYGLDSVVLSLMNTASIFIKDKGLLECRPVLPREDFCEIPAEILSERIGYMVVEIDELDRQAKIVGFVESVSNEKLALSKLGSLQDFLIYLQKLQKIENYDPSNPDISEIARNQLNESIVKLSKWFKGLLDSGWEYELAIAKDIPNVLAVPKDISPVNVTDKEEVGGARIIHLMHLSEPVLLILRQTRLSPDEIEIILRLYPASESIFLLDGIKMTLLDEKDNPIRQLEKQAKASNWLQLRFKGNVGDKFSLKISFRGDSVITKFII”, which “soluble on expression in E. coli” value is on record?
**A.** not soluble

**Q.** Which “soluble on expression in E. coli” value does the source give for “MLLSTKSKKLIRTQYFTTPGILMRGRSHPVGDFKVQNKNPHFNDISVGKRIRYRRKMLGLSQKQLGHSLGVTFQQIQKYEKGINRVGAGRLQEIATLLDVSISFFYADISTKEHVSYPRNKGISNKEEDFLLKSFRELKPKKQKAILCLLSD” here?
**A.** not soluble
